Test results from US11672767.

B1: plasmin secreted by the encapsulated cells (hMSCs) (protein)
chain: KVYLSECKTGNGKNYRGTMSKTKNGITCQKWSSTSPHRPRFSPATHPSEGLEENYCRNPDNDPQGPWCYTTDPEKRYDYCDILECEEECMHCSGENYDGKISKTMSGLECQAWDSQSPHAHGYIPSKFPNKNLKKNYCRNPDRELRPWCFTTDPNKRWELCDIPRCTTPPPSSGPTYQCLKGTGENYRGNVAVTVSGHTCQHWSAQTPHTHNRTPENFPCKNLDENYCRNPDGKRAPWCHTTNSQVRWEYCKIPSCDSSPVSTEQLAPTAPPELTPVVQDCYHGDGQSYRGTSSTTTTGKKCQSWSSMTPHRHQKTPENYPNAGLTMNYCRNPDADKGPWCFTTDPSVRWEYCNLKKCSGTEASVVAPPPVVLLPDVETPSEEDCMFGNGKGYRGKRATTVTGTPCQDWAAQEPHRHSIFTPETNPRAGLEKNYCRNPDGDVGGPWCYTTNPRKLYDYCDVPQCAAPSFDCGKPQVEPKKCPGRVVGGCVAHPHSWPWQVSLRTRFGMHFCGGTLISPEWVLTAAHCLEKSPRPSSYKVILGAHQEVNLEPHVQEIEVSRLFLEPTRKDIALLKLSSPAVITDKVIPACLPSPNYVVADRTECFITGWGETQGTFGAGLLKEAQLPVIENKVCNRYEFLNGRVQSTELCAGHLAGGTDSCQGDSGGPLVCFEKDKYILQGVTSWGLGCARPNKPGVYVRVSRFVTWIEGVMRNN

Key:
[1] = target: T1, BMP2-P5SPCP NPs (UniProt P12643)
T1 sequence 1: CGGKGGKFKTGG
T1 sequence 2: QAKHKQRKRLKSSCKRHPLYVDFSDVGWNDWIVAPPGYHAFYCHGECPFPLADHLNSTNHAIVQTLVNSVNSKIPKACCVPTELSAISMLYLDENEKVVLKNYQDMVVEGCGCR

[2] = target: T2, BMP2-PxSPCP NPs (UniProt P12643)
T2 sequence 1: CGGKGGKFKTGG
T2 sequence 2: T1 sequence 2

[3] = target: T3, BMP2-PxSPCP NPs, P12643
T3 chain 1: CGGKGGKFKTGG
T3 chain 2: T1 sequence 2

Molecule	cumulative release of BMP2 from NPs co-encapsulated with plasmin in LPELA hydrogel, measured by BMP2 ELISA [1]	release of BMP2 from NPs co-encapsulated with plasmin in LPELA hydrogel, measured by BMP2 ELISA [2]	osteogenic activity (peak RUNX2 expression) of hMSCs co-encapsulated with the NPs [3]
plasmin	the cumulative release of BMP2 from the encapsulated BMP2-P5SPCP NPs was 60% after 21 days	gradually released to the medium with incubation time at a rate faster than BMP2-PxSP NPs but slower than the free BMP2	–
B1	–	–	The BMP2-PxSPCP NP groups showed significantly higher osteogenic activity compared to non-cleavable BMP2-PxSP NPs
